In patent US20220380728A1 (EAST CAROLINA UNIVERSITY, published 2022):

T1: murine CD25 (IL-2 receptor alpha chain) on mouse T cells (mouse, UniProt P01590 22-268)
T1 construct: whole, on cells; Endogenous CD25 on cultured mouse Tregs and Tcons; also called IL-2Rα; surface CD25
T1 sequence (looked up): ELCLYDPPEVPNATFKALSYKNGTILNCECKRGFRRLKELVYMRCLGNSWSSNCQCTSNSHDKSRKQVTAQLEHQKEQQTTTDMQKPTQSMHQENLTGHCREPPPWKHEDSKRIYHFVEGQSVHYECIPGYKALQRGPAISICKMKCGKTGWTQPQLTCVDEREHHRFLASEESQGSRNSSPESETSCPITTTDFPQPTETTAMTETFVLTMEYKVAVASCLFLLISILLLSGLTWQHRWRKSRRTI


Legend:
[1] = target: TGF-β produced by cells in the culture (mouse) (UniProt Q61315); assay: cell-based or functional assay
Chain of TGF-β produced by cells in the culture (mouse) (Q61315 whole entry): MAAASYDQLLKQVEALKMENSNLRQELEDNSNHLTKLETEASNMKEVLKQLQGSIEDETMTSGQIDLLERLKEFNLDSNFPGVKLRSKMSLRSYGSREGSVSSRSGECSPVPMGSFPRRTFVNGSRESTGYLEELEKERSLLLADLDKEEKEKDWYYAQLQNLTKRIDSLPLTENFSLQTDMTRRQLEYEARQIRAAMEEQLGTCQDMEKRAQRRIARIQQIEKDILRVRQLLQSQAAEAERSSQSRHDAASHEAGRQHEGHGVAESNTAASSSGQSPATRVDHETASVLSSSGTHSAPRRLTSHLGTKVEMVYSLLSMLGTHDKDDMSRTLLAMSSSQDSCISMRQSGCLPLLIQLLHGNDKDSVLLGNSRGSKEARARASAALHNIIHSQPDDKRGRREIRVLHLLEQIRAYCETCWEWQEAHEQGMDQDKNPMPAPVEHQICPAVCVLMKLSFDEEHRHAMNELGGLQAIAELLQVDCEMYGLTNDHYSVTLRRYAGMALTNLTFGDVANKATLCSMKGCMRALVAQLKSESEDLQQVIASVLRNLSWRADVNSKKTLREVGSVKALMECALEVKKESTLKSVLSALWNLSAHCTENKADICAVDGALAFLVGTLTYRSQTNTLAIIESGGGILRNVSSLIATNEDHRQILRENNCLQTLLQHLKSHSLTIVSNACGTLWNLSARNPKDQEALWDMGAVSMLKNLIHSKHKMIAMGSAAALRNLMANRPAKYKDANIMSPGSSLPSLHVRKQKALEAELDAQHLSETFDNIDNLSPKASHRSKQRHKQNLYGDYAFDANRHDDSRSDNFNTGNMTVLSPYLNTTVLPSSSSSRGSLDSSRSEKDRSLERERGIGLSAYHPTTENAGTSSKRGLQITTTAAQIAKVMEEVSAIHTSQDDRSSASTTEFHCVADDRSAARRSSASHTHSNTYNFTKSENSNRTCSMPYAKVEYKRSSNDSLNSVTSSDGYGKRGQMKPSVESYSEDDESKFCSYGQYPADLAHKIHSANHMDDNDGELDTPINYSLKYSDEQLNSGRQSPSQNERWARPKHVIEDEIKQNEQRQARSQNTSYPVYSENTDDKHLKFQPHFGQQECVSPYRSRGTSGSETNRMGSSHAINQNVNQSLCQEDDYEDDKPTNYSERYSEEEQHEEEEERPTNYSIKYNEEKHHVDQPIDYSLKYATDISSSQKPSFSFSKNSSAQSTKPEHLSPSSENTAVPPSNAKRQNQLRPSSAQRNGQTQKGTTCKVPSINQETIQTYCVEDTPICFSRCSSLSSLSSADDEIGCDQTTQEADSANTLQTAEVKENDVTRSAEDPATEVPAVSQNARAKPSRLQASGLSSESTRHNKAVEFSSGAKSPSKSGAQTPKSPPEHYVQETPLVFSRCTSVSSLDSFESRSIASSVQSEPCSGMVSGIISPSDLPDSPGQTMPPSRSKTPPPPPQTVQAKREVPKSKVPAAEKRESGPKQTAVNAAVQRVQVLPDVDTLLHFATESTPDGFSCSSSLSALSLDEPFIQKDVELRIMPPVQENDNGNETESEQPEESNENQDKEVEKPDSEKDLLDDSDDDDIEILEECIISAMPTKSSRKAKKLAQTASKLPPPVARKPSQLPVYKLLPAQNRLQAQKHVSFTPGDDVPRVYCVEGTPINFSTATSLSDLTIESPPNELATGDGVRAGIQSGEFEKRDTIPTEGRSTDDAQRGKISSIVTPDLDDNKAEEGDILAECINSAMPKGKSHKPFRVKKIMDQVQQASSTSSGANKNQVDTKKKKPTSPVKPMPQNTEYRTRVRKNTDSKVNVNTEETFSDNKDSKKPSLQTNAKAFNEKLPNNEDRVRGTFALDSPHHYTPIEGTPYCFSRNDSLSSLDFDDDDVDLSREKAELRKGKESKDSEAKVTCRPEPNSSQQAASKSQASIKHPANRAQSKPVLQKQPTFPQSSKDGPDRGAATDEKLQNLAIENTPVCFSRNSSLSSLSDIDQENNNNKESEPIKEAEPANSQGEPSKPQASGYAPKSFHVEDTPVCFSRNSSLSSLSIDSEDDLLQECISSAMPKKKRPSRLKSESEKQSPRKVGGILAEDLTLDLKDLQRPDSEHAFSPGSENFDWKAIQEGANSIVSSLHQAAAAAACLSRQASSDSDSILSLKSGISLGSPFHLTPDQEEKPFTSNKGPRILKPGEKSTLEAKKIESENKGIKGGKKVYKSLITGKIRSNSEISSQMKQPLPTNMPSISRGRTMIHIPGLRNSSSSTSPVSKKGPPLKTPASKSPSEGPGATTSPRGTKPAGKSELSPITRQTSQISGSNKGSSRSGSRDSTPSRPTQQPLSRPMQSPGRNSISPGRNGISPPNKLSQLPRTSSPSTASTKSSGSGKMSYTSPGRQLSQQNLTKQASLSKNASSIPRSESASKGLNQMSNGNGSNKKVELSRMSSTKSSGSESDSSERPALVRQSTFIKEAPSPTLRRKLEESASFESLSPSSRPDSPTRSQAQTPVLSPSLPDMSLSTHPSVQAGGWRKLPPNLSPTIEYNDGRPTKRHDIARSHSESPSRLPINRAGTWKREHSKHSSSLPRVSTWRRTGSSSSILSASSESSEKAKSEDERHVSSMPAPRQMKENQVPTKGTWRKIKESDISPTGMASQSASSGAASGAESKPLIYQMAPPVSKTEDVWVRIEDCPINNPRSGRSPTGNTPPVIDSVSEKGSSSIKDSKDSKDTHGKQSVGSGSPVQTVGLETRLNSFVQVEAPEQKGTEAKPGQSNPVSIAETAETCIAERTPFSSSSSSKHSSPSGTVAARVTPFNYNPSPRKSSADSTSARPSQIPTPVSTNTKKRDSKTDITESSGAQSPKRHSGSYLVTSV

[2] = target: T1, murine CD25 (IL-2 receptor alpha chain) …; assay: flow cytometry on 2D2-FIG Tregs; loss of APC-conjugated PC61 staining

FOXP3+ Treg percentages during secondary activation (1D11 at 50 µg/ml) [1] [%] | binding result [2] | Molecule
< 50 | – | 1D11.16.8 anti-mouse-TGF-β1/2/3 monoclonal antibody (mouse IgG1)
– | binds | PC61 anti-CD25 monoclonal antibody (PC61-5.3 hybridoma, rat IgG1, lambda) (antibody, V domains shown, also called PC61 mAb; anti-CD25 PC61 mAb) VH: QVQLQQSGAELVRPGTSVKLSCKVSGDTITAYYIHFVKQRPGQGLEWIGRIDPEDDSTEYAEKFKNKATITANTSSNTAHLKYSRLTSEDTATYFCTTDNMGATEFVYWGQGTLVTVSS VL: QVVLTQPKSVSASLESTVKLSCKLNSGNIGSYYMHWYQQREGRSPTNLIYRDDKRPDGAPDRFSGSIDISSNSAFLTINNVQTEDEAMYFCHSYDGRMYIFGGGTKLTVLG
